Results: article PMC6515139, “Oligomeric Architecture of Mouse Activating Nkrp1 Receptors on Living Cells” (International Journal of Molecular Sciences, 2019)
One block for each molecule: values may come before it.

Legend:
[1] = target: EGFP-Nkrp1a_C74,88S (mouse (C57BL/6)) (UniProt P27811); assay: FRET or BRET; homo-FRET (steady-state fluorescence anisotropy of EGFP, time-domain, TCSPC) at the plasma membrane of living transfected Jurkat cells on PLL-coated slides, 37 °C; semi-quantitative, calibrated by monomeric LAT and dimeric CD8α
[2] = target: EGFP-Nkrp1a_C74S (mouse (C57BL/6)) (UniProt P27811); assay: as above
[3] = target: EGFP-Nkrp1c2 (mouse (C57BL/6)); assay: as above
[4] = target: EGFP-Nkrp1a_C88S (mouse (C57BL/6)) (UniProt P27811); assay: as above
[5] = target: the molecule itself; assay: as above
[6] = target: the molecule itself; assay: SEC + other: SDS-PAGE under reducing and non-reducing conditions; refolded ectodomains on calibrated Superdex 75 (Nkrp1a^ECTO: 150 mM NaCl, 15 mM Tris-HCl pH 7.5; the others: 10 mM HEPES pH 7.4, 100 mM NaCl); main peaks analysed on 15% SDS-PAGE

steady-state anisotropy, mean [1]: 0.285
steady-state anisotropy, median [1]: 0.283
Molecule: EGFP-Nkrp1a_C74,88S (from UniProt P27811 1-227) (receptor)

steady-state anisotropy, mean [2]: 0.273
steady-state anisotropy, median [2]: 0.272
Molecule: EGFP-Nkrp1a_C74S (from UniProt P27811 1-227) (receptor)

steady-state anisotropy, mean [3]: 0.248
steady-state anisotropy, median [3]: 0.249
Molecule: EGFP-Nkrp1c2 (receptor)

steady-state anisotropy, mean [4]: 0.267
steady-state anisotropy, median [4]: 0.266
Molecule: EGFP-Nkrp1a_C88S (from UniProt P27811 1-227) (receptor)

B1: EGFP-Nkrp1f (receptor, mouse (C57BL/6), UniProt Q8VD98 1-217, looked up)
chain: MDTSKVHGNVKPFRCPGYKQASSPSFSPDACRCPHWHHLALKSGCAGLILLLLSLIGLSVLVRFLVQKPPIEKCSVAAQENRTELTGRSAILECPRYWHPHWNKCLFVSQISRPWAEGRDACSMEDAILLLIENKEELRFVQNLIKGKEQLFFIGLKYVQKEKIWKWIDGSILNPNLLRITGKDKENSCAIISHTEVFSDSCSSDNHWICQKTLIHV
notes: last residue V217; Vector pXJ41; also called f isoform; source: Jurkat, transiently transfected, living cells; COS-7, transiently transfected, in lysate; not shown: EGFP (with spacer GSGGGS), N-terminal, kept
steady-state anisotropy, mean [5]: 0.25
steady-state anisotropy, median [5]: 0.25

B2: EGFP-Nkrp1f_C74S (receptor, mouse (C57BL/6), UniProt Q8VD98 1-217, looked up)
chain: MDTSKVHGNVKPFRCPGYKQASSPSFSPDACRCPHWHHLALKSGCAGLILLLLSLIGLSVLVRFLVQKPPIEKSSVAAQENRTELTGRSAILECPRYWHPHWNKCLFVSQISRPWAEGRDACSMEDAILLLIENKEELRFVQNLIKGKEQLFFIGLKYVQKEKIWKWIDGSILNPNLLRITGKDKENSCAIISHTEVFSDSCSSDNHWICQKTLIHV
notes: Two extra C-terminal residues (Thr-Gly) possible as for m8 (surmise from the primer); also called C74S mutant of Nkrp1f; source: Jurkat, transiently transfected, living cells; COS-7, transiently transfected, in lysate; not shown: EGFP (with spacer GSGGGS), N-terminal, kept
steady-state anisotropy, mean [5]: 0.281
steady-state anisotropy, median [5]: 0.281

B3: EGFP-Nkrp1c1 (receptor, mouse (C57BL/6), UniProt P27814 1-223, looked up)
chain: MDTASIYLGLKPPRTLGAWHESPPSLPPDACRCPRSHRLALKLSCAGLILLVLTLIGMSVLVRVLVQKPSREKCCVFIQENLNKTTDCSVNLECPQDWLLHRDKCFHVSQVSNTWEEGQADCGRKGATLLLIQDQEELRFLLDSIKEKYNSFWIGLRFTLPDMNWKWINGTTFNSDVLKITGVTENGSCASILGDKVTPESCASDNRWICQKELNHETPSNDS
notes: last residue S223; Vector pXJ41; also called c1 isoform; source: Jurkat, transiently transfected, living cells; COS-7, transiently transfected, in lysate; not shown: EGFP (with spacer GSGGGS), N-terminal, kept
steady-state anisotropy, mean [5]: 0.244
steady-state anisotropy, median [5]: 0.242

B4: Nkrp1f^ECTO (domain or fragment, mouse (C57BL/6), UniProt Q8VD98 67-217, looked up)
chain: QKPPIEKCSVAAQENRTELTGRSAILECPRYWHPHWNKCLFVSQISRPWAEGRDACSMEDAILLLIENKEELRFVQNLIKGKEQLFFIGLKYVQKEKIWKWIDGSILNPNLLRITGKDKENSCAIISHTEVFSDSCSSDNHWICQKTLIHV
notes: mouse (C57BL/6) Nkrp1f ectodomain with stalk, residues Q67-V217; Cloned into pET-30a(+) between NdeI and HindIII; an initiator Met may precede Q67 (surmise); The monomeric form bears cysteamine on C74; the dimeric form has a C74-C74 disulfide; also called recombinant ectodomain of Nkrp1f
stoichiometry N [6]: 2

B5: Nkrp1c1^ECTO (domain or fragment, mouse (C57BL/6), UniProt P27814 70-223, looked up)
chain: SREKCCVFIQENLNKTTDCSVNLECPQDWLLHRDKCFHVSQVSNTWEEGQADCGRKGATLLLIQDQEELRFLLDSIKEKYNSFWIGLRFTLPDMNWKWINGTTFNSDVLKITGVTENGSCASILGDKVTPESCASDNRWICQKELNHETPSNDS
notes: mouse (C57BL/6) Nkrp1c isoform c1 ectodomain with stalk, residues S70-S223; Cloned into pET-30a(+) between NdeI and HindIII; an initiator Met may precede S70 (surmise); The monomeric form bears cysteamine on C88; the dimeric form has a C88-C88 disulfide; also called Nkrpc1^ECTO; recombinant ectodomain of Nkrp1c1
stoichiometry N [6]: 2

B6: EGFP-Nkrp1a (receptor, mouse (C57BL/6), UniProt P27811 1-227, looked up)
chain: MDTARVYFGLKPPRTPGAWHESPPSLPPDACRCPRSHRLALKLSCAGLILLVVTLIGMSVLVRVLIQKPSIEKCYVLIQENLNKTTDCSAKLECPQDWLSHRDKCFQVSHVSNTWEEGLVDCDGKGATLMLIQDQEELRFLLDSIKEKYNSFWIGLRYTLPDMNWKWINGSTLNSDVLKITGDTENDSCAAISGDKVTFESCNSDNRWICQKELYHETLSNYVGYGH
notes: last residue H227; Vector pXJ41; also called Nkrp1a1; a1 isoform; source: Jurkat, transiently transfected, living cells; COS-7, transiently transfected, in lysate; not shown: EGFP (with spacer GSGGGS), N-terminal, kept
steady-state anisotropy, mean [5]: 0.269
steady-state anisotropy, median [5]: 0.271
